Experimental data taken from patent publication US20220220224A1 (Hoffmann-La Roche, published 2022).
Read-outs that look alike come from different tables or passages of the source.

Tests used:
[1] = molecular target: T1, human FolR1 expressed on cells (HeLa, SKOV3, HT-29, transfected HEK cells) (human, UniProt P15328 25-234); test: cell-based or functional assay
[2] = molecular target: T1, human FolR1 expressed on cells (HeLa, …); test: cell-based or functional assay; remark: listed apart in the source
[3] = molecular target: T2, recombinant biotinylated monomeric Fc fusion of human Folate Receptor 1 (huFolR1 ECD-AcTev-Fcknob-Avi tag … (human, UniProt P0DOX5 223-449 = IgG part, biotin on the C-terminal Avi tag)); test: SPR Biacore, avidity (bivalent)
T2 construct: also called huFolR1-Fc; human FolR1-Fc

[4] = molecular target: T2, recombinant biotinylated monomeric Fc …; test: SPR Biacore, affinity (monovalent)
[5] = molecular target: T3, recombinant biotinylated monomeric Fc fusion of murine Folate Receptor 1 (mu FolR1 ECD-AcTev-Fcknob-Avitag … (murine, UniProt P0DOX5 223-449 = IgG part, biotin on the C-terminal Avi tag)); test: SPR Biacore, single injection on immobilized antigen-Fc
T3 construct: also called muFolR1-Fc; murine FolR1
Description: (§1) All SPR experiments were performed on a Biacore T200 at 25° C. with HBS-EP as running buffer (0.01 M HEPES pH 7.4, 0.15 M NaCl, 3 mM EDTA, 0.005% Surfactant P20, Biacore, GE Healthcare). The molecules used for affinity and avidity determination are described in Table 45.
(§2) First the anti-FolR1 TCBs were analyzed by single injections (Table 46) to characterize their crossreactivity (to human, murine and cyno FolR1) and specificity (to human FolR1, human FolR2, human FolR3). Recombinant biotinylated monomeric Fc fusions of human, cynomolgus and murine Folate Receptor 1 (FolR1-Fc) or human Folate Receptor 2 and 3 (FolR2-Fc, FolR3-Fc) were directly coupled on a SA chip using the standard coupling instruction (Biacore, Freiburg/Germany). The immobilization level was about 300-400 RU. The TCBs were injected for 60 seconds at a concentration of 500 nM.

[6] = molecular target: T4, recombinant biotinylated monomeric Fc fusion of human Folate Receptor 2 (hu FolR2 ECD-AcTev-Fcknob-Avi tag … (human, UniProt P0DOX5 223-449 = IgG part, biotin on the C-terminal Avi tag)); test: as above
T4 construct: also called FolR2-Fc
Description: as §1, §2

[7] = molecular target: T5, recombinant biotinylated monomeric Fc fusion of human Folate Receptor 3 (hu FolR3 ECD-AcTev-Fcknob-Avi tag … (human, UniProt P0DOX5 223-449 = IgG part, biotin on the C-terminal Avi tag)); test: as above
T5 construct: also called FolR3-Fc
Description: as §1, §2

[8] = molecular target: T2, recombinant biotinylated monomeric Fc …; test: SPR Biacore, avidity (bivalent, apparent KD), antigen-Fc on SA chip
[9] = molecular target: T6, recombinant biotinylated monomeric Fc fusion of cynomolgus Folate Receptor 1 (cy FolR1 ECD-AcTev-Fcknob-Avi … (cynomolgus, UniProt P0DOX5 223-449 = IgG part, biotin on the C-terminal Avi tag)); test: as above
T6 construct: also called cyFolR1-Fc; cyno FolR1

[10] = molecular target: T2, recombinant biotinylated monomeric Fc …; test: SPR Biacore, affinity (monovalent), antibody captured via anti-Fab, steady state analysis
Description: as §1
(§3) For affinity measurement, direct coupling of around 12000 resonance units (RU) of the anti-human Fab specific antibody (Fab capture kit, GE Healthcare) was performed on a CM5 chip at pH 5.0 using the standard amine coupling kit (GE Healthcare). Anti-FolR1 T cell bispecifics were captured at 20 nM with a flow rate of 10 μl/min for 40 sec, the reference flow cell was left without capture. […] The dissociation phase was monitored for 300 s and triggered by switching from the sample solution to HBS-EP. The chip surface was regenerated after every cycle using a double injection of 60 sec 10 mM Glycine-HCl pH 2.1. Bulk refractive index differences were corrected for by subtracting the response obtained on the reference flow cell 1. The affinity constants for the interactions were derived from the rate constants by fitting to a 1:1 Langmuir binding using the Bia Evaluation software (GE Healthcare). For low affinity kinetics with association and dissociation phases too fast to be fitted by the 1:1 Langmuir binding model, the steady state analysis model was applied using the Bia Evaluation software (GE Healthcare). The steady state analysis gives the KD of the binding reaction at equilibrium.

[11] = molecular target: T6, recombinant biotinylated monomeric Fc …; test: as above
Description: as §1, §3

[12] = molecular target: T2, recombinant biotinylated monomeric Fc …; test: SPR Biacore, avidity (bivalent, apparent KD), antigen-Fc on SA chip; remark: listed apart in the source
Description: (§4) The avidity of the interaction between the anti-FolR1 IgGs or T cell bispecifics and the recombinant folate receptors was determined as described below (Table 41).
(§5) Recombinant biotinylated monomeric Fc fusions of human, cynomolgus and murine Folate Receptor 1 (FolR1-Fc) were directly coupled on a SA chip using the standard coupling instruction (Biacore, Freiburg/Germany). The immobilization level was about 300. […] The dissociation was monitored for 240 or 600 seconds. Bulk refractive index differences were corrected for by subtracting the response obtained on reference flow cell immobilized with recombinant biotinylated murine IL2 receptor Fc fusion. The binding curves resulting from the bivalent binding of the IgG or T cell bispecifics were approximated to a 1:1 Langmuir binding (even though it is a 1:2 binding) and fitted with that model to get an apparent KD representing the avidity of the bivalent binding. The apparent avidity constants for the interactions were derived from the rate constants of the fitting using the Bia Evaluation software (GE Healthcare). For low affinity kinetics with association and dissociation phases too fast to be fitted by the 1:1 Langmuir binding model, the steady state analysis model was applied using the Bia Evaluation software (GE Healthcare). The steady state analysis gives the KD of the binding reaction at equilibrium.

[13] = molecular target: T6, recombinant biotinylated monomeric Fc …; test: as above; remark: listed apart in the source
Description: as §4, §5

[14] = molecular target: T2, recombinant biotinylated monomeric Fc …; test: SPR Biacore, affinity (monovalent), antibody captured via anti-Fab, steady state
Description: The affinity of the interaction between the anti-FolR1 IgGs or the T cell bispecifics and the recombinant folate receptors was determined as described below (Table 42).
For affinity measurement, direct coupling of around 10000 resonance units (RU) of the anti-human Fab specific antibody (Fab capture kit, GE Healthcare) was performed on a CM5 chip at pH 5.0 using the standard amine coupling kit (GE Healthcare). Anti-FolR1 IgGs or T cell bispecifics were captured at 200 nM with a flow rate of 10 ul/min for 40 sec, the reference flow cell was left without capture. Dilution series (12.35 to 3000 nM) of human Folate Receptor 1 Fc fusion were passed on all flow cells at 30 μl/min for 240 sec to record the association phase. The dissociation phase was monitored for 300 s and triggered by switching from the sample solution to HBS-EP. The chip surface was regenerated after every cycle using a double injection of 60 sec 10 mM Glycine-HCl pH 1.5. Bulk refractive index differences were corrected for by subtracting the response obtained on the reference flow cell 1. […]

T1 sequence (P15328 25-234): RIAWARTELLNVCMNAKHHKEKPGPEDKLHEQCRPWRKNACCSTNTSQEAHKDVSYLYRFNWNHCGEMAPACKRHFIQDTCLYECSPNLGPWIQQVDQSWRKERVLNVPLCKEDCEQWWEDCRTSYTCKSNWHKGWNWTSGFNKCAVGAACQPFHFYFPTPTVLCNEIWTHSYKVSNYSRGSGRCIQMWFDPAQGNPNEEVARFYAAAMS

B1: 16D5 W96Y/D52E TCB (2+1 inverted, common light chain) (bispecific antibody)
heavy 1: not shown
heavy 2: not shown
light: QAVVTQEPSLTVSPGGTVTLTCGSSTGAVTTSNYANWVQEKPGQAFRGLIGGTNKRAPGTPARFSGSLLGGKAALTLSGAQPEDEAEYYCALWYSNLWVFGGGTKLTVLGQPKAAPSVTLFPPSSEELQANKATLVCLISDFYPGAVTVAWKADSSPVKAGVETTTPSKQSNNKYAASSYLSLTPEQWKSHRSYSCQVTHEGSTVEKTVAPTECS
In the case of B1, the “EC50 of T-cell killing of Hela, 24 h” value [1] is reported as 0.0013 nM, the “EC50 of T-cell killing of SKov-3, 24 h” value [1] is reported as 0.235 nM and the “EC50 of T-cell killing of HT-29, 48 h” value [2] is reported as 0.399 nM. For the same binder, the “EC50 of T-cell killing of Hela, 48 h” value [2] was 0.0009 nM, the “EC50 of T-cell killing of SKov-3, 48 h” value [2] was 0.093 nM and the “fold lower avidity than 16D5 WT (3 nM)” value [3] was 3 fold. The “fold lower affinity than 16D5 WT (57 nM)” value [4] was 24.5 fold, the binding result [5] was “no binding (tested: 500 nM)” and the binding result [6] was “no binding (tested: 500 nM)”. For the same binder, the binding result [7] was “no binding (tested: 500 nM)”, the Kd [8] was 10 nM and the koff [8] was 0.0014 s⁻¹. It also gave a kon [8] of 124000 M⁻¹ s⁻¹, a Kd [9] of 30 nM and a koff [9] of 0.0141 s⁻¹. The kon [9] was 517000 M⁻¹ s⁻¹, the Kd [10] was 1400 nM and the Kd [11] was 5600 nM.

B2: 16D5 IgG variant W98Y/wt (HC/LC) (antibody, V domains shown)
VH: not shown
VL: QAVVTQEPSLTVSPGGTVTLTCGSSTGAVTTSNYANWVQEKPGQAFRGLIGGTNKRAPGTPARFSGSLLGGKAALTLSGAQPEDEAEYYCALWYSNLWVFGGGTKLTVL
notes: IgG
B2 gave a Kd [12] of 240 nM, a koff [12] of 0.0328 s⁻¹ and a kon [12] of 136000 M⁻¹ s⁻¹. For the same binder, the Kd [13] was 200 nM, the koff [13] was 0.0361 s⁻¹ and the kon [13] was 171000 M⁻¹ s⁻¹. For the same binder, the Kd [14] was 5400 nM.
